We go through 24 molecules from patent US20260151494A1 (ARO BIOTHERAPEUTICS, published 2026).

Residue numbers refer to the chain shown, from its start.

The target of assay [1] is T1, human CD71 extracellular domain (human, UniProt P02786 89-760, biotinylated).
T1 construct: also called hCD71; CD71-ECD
Briefly: primary ELISA, RLU over HSA. (An ELISA detects its analyte on a solid surface through an enzyme-linked reagent.)

The target in assay [2] is T2, apical domain of human CD71 (human, UniProt P02786 189-383, limits assumed).
T2 construct: domain: apical domain; Screen 4 panned on human apical domains, the ELISA text says only 'apical domain'
The assay can be described thus: primary ELISA, RLU over HSA.

Assay [3] deals with T1, human CD71 extracellular domain. The assay can be described thus: primary ELISA. Note: test concentration or dose not given here.
The target in assay [4] is T2, apical domain of human CD71. Briefly: primary ELISA. Note: test concentration or dose not given here.

T1 sequence (P02786 89-760): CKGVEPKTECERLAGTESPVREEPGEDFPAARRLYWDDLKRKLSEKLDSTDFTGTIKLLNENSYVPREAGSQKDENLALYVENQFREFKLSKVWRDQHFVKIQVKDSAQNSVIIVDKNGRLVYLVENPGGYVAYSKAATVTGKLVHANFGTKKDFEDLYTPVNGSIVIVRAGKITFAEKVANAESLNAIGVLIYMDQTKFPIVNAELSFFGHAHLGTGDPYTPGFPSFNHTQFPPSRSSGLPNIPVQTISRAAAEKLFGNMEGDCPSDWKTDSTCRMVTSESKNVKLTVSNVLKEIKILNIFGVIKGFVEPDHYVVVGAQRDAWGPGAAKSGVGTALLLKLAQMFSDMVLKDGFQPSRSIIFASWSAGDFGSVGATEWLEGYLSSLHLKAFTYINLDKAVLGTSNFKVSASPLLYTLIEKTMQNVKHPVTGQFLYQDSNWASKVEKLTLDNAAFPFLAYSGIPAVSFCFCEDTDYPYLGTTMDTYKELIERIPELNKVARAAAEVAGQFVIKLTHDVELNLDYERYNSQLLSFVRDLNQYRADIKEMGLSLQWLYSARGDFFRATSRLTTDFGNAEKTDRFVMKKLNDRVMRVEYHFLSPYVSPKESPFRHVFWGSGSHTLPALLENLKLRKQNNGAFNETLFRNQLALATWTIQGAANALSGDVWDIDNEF
T2 sequence (P02786 189-383 limits assumed): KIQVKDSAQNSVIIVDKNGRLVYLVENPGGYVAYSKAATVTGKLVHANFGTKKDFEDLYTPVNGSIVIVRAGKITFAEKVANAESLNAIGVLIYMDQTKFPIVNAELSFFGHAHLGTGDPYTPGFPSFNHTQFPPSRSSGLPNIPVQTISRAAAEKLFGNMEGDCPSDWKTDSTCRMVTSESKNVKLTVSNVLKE

B1: CD71-binding FN3 domain of SEQ ID NO: 499 (designed binder)
chain: MLPAPKNLVVSRVTEDSARLSWTAPDAAFDSFFIGYLEPQPPGEAISLYVPGSERSYDLTGLKPGTEYNVTIQGVKGGFPSSPLFADFTT
In the case of B1, the “hCD71:HSA” value in assay [1] amounted to 132. Besides, the “Apical domain:HSA” value in assay [2] was 148. For the same molecule, the RLU in assay [3] was 2.78e+06 RLU; in assay [4], 3.13e+06 RLU.

B2: CD71-binding FN3 domain of SEQ ID NO: 505 (designed binder)
chain: B1 chain with P25L, S47H, Y49F, S82E, F85I, D87N
As to B2, the “hCD71:HSA” value in assay [1] worked out at 52. In addition, in assay [2], the “Apical domain:HSA” value was determined as 54. Moreover, the RLU is 5.38e+06 RLU in assay [3] and 5.64e+06 RLU in assay [4].

B3: CD71-binding FN3 domain of SEQ ID NO: 526 (designed binder)
chain: B1 chain with Y49I, S82D, F85I, D87I
Take B3: the “hCD71:HSA” value in assay [1] came to 497. For the same molecule, the “Apical domain:HSA” value in assay [2] is 721. Besides, the RLU in assay [3] turned out to be 3.7e+06 RLU; in assay [4] it was 5.37e+06 RLU.

B4: CD71-binding FN3 domain of SEQ ID NO: 518 (designed binder)
chain: B1 chain with Y49W, S82D, F85G, D87H
Consider B4, for which the “hCD71:HSA” value in assay [1] stood at 150. Moreover, the “Apical domain:HSA” value in assay [2] was determined as 271. Also, the RLU in assay [3] amounted to 1.85e+06 RLU; in assay [4], 3.34e+06 RLU.

B5: CD71-binding FN3 domain of SEQ ID NO: 511 (designed binder)
chain: B1 chain with S47D, Y49F, S82L, F85V, D87S
With B5, in assay [1], the “hCD71:HSA” value turned out to be 49. Also, the “Apical domain:HSA” value in assay [2] turned out to be 53. The figures for the RLU in assay [3] and in assay [4] were 5.03e+06 RLU and 5.48e+06 RLU, respectively.

B6: CD71-binding FN3 domain of SEQ ID NO: 523 (designed binder)
chain: B1 chain with S47D, Y49L, S82E, F85T, D87E
With B6, in assay [1], the “hCD71:HSA” value was found to be 292. Also, the “Apical domain:HSA” value in assay [2] was 300. Also, the figures for the RLU in assay [3] and in assay [4] were 4.19e+06 RLU and 4.31e+06 RLU, respectively.

B7: CD71-binding FN3 domain of SEQ ID NO: 513 (designed binder)
chain: B1 chain with S82L, F85A, D87Q
B7: the “hCD71:HSA” value in assay [1] was found to be 186. The “Apical domain:HSA” value in assay [2] is 201. For the same molecule, the figures for the RLU in assay [3] and in assay [4] were 2.52e+06 RLU and 2.72e+06 RLU, respectively.

B8: CD71-binding FN3 domain of SEQ ID NO: 501 (designed binder)
chain: B1 chain with Y49L, S82V, F85S, D87I
With B8, the “hCD71:HSA” value in assay [1] stood at 399. Moreover, the “Apical domain:HSA” value in assay [2] is 606. For the same molecule, the RLU in assay [3] amounted to 3.21e+06 RLU; in assay [4], 4.88e+06 RLU.

B9: CD71-binding FN3 domain of SEQ ID NO: 521 (designed binder)
chain: B1 chain with S47V, Y49W, S82H, F85V, D87H
With B9, the “hCD71:HSA” value in assay [1] was 186. The “Apical domain:HSA” value in assay [2] came to 178. Also, the values for the RLU in assay [3] and in assay [4] were 5.62e+06 RLU and 5.38e+06 RLU, respectively.

B10: CD71-binding FN3 domain of SEQ ID NO: 514 (designed binder)
chain: B1 chain with S47H, Y49F, S82E, F85I, D87N
In the case of B10, in assay [1], the “hCD71:HSA” value was determined as 119. The “Apical domain:HSA” value in assay [2] was 119. The RLU in assay [3] amounted to 5.92e+06 RLU; in assay [4], 5.94e+06 RLU.

B11: CD71-binding FN3 domain of SEQ ID NO: 528 (designed binder)
chain: B1 chain with S47T, Y49L, S82I, F85I, D87I
Consider B11, for which the “hCD71:HSA” value in assay [1] was found to be 169. Moreover, in assay [2], the “Apical domain:HSA” value stood at 182. The RLU came out at 5.18e+06 RLU in assay [3] and 5.58e+06 RLU in assay [4].

B12: CD71-binding FN3 domain of SEQ ID NO: 504 (designed binder)
chain: B1 chain with S47G, Y49V, S82H, F85G, D87I
B12: in assay [1], the “hCD71:HSA” value amounted to 78. Moreover, the “Apical domain:HSA” value in assay [2] was found to be 172. The results for the RLU in assay [3] and in assay [4] were 1.22e+06 RLU and 2.68e+06 RLU, respectively.

B13: CD71-binding FN3 domain of SEQ ID NO: 525 (designed binder)
chain: B1 chain with S47A, S82E, F85V, D87T
Turning to B13, the “hCD71:HSA” value in assay [1] came out at 49. Besides, the “Apical domain:HSA” value in assay [2] was 48. The RLU came to 6.02e+06 RLU in assay [3] and 5.93e+06 RLU in assay [4].

B14: CD71-binding FN3 domain of SEQ ID NO: 524 (designed binder)
chain: B1 chain with S47H, Y49W, S82M, F85S, D87I
Take B14: in assay [1], the “hCD71:HSA” value stood at 190. In assay [2], the “Apical domain:HSA” value was 232. The RLU in assay [3] came out at 3.22e+06 RLU; in assay [4], 3.95e+06 RLU.

B15: CD71-binding FN3 domain of SEQ ID NO: 527 (designed binder)
chain: B1 chain with S47H, S82E, F85I, D87N
For the molecule B15, the “hCD71:HSA” value in assay [1] was found to be 15. Moreover, the “Apical domain:HSA” value in assay [2] was found to be 15. Also, the RLU in assay [3] was 6.59e+06 RLU; in assay [4], 6.4e+06 RLU.

B16: CD71-binding FN3 domain of SEQ ID NO: 517 (designed binder)
chain: B1 chain with S47A, Y49V, S82M, D87Y
Take B16: the “hCD71:HSA” value in assay [1] came out at 142. Besides, the “Apical domain:HSA” value in assay [2] amounted to 166. For the same molecule, the values for the RLU in assay [3] and in assay [4] were 3.12e+06 RLU and 3.64e+06 RLU, respectively.

B17: CD71-binding FN3 domain of SEQ ID NO: 502 (designed binder)
chain: B1 chain with S47G, Y49H, S82I, F85E, D87K
On to B17, for which the “hCD71:HSA” value in assay [1] is 141. In addition, in assay [2], the “Apical domain:HSA” value stood at 222. Also, the results for the RLU in assay [3] and in assay [4] were 1.49e+06 RLU and 2.34e+06 RLU, respectively.

B18: CD71-binding FN3 domain of SEQ ID NO: 522 (designed binder)
chain: B1 chain with S47T, T60N, S82M, F85S, D87I
As to B18, in assay [1], the “hCD71:HSA” value came out at 318. The “Apical domain:HSA” value in assay [2] amounted to 283. Further, the RLU was determined as 3.91e+06 RLU in assay [3] and 3.48e+06 RLU in assay [4].

B19: CD71-binding FN3 domain of SEQ ID NO: 529 (designed binder)
chain: B1 chain with S47D, S82L, F85Q, D87H
For B19, the “hCD71:HSA” value in assay [1] was determined as 466. The “Apical domain:HSA” value in assay [2] turned out to be 366. Besides, the results for the RLU in assay [3] and in assay [4] were 4.13e+06 RLU and 3.24e+06 RLU, respectively.

B20: CD71-binding FN3 domain of SEQ ID NO: 508 (designed binder)
chain: B1 chain with S47T, Y49S, S82E, F85I, D87I
B20: the “hCD71:HSA” value in assay [1] was 264. Besides, the “Apical domain:HSA” value in assay [2] was determined as 222. For the same molecule, the RLU was found to be 4.22e+06 RLU in assay [3] and 3.55e+06 RLU in assay [4].

B21: CD71-binding FN3 domain of SEQ ID NO: 500 (designed binder)
chain: B1 chain with S47D, Y49L, S82M, F85S, D87I
Turning to B21, the “hCD71:HSA” value in assay [1] turned out to be 147. Also, the “Apical domain:HSA” value in assay [2] worked out at 169. Also, the figures for the RLU in assay [3] and in assay [4] were 2.95e+06 RLU and 3.39e+06 RLU, respectively.

B22: CD71-binding FN3 domain of SEQ ID NO: 516 (designed binder)
chain: B1 chain with Y49W, F85V, D87Y
On to B22, for which the “hCD71:HSA” value in assay [1] was 267. The “Apical domain:HSA” value in assay [2] is 264. For the same molecule, the RLU in assay [3] was found to be 4.73e+06 RLU; in assay [4], 4.67e+06 RLU.

B23: CD71-binding FN3 domain of SEQ ID NO: 512 (designed binder)
chain: B1 chain with S47D, Y49W, S82D, F85D, D87H
B23: the “hCD71:HSA” value in assay [1] amounted to 124. Also, the “Apical domain:HSA” value in assay [2] was 233. The results for the RLU in assay [3] and in assay [4] were 2.06e+06 RLU and 3.87e+06 RLU, respectively.

B24: CD71-binding FN3 domain of SEQ ID NO: 515 (designed binder)
chain: B1 chain with S47A, Y49W, S82T, F85I, D87Q
As to B24, the “hCD71:HSA” value in assay [1] came to 97. Also, the “Apical domain:HSA” value in assay [2] came to 88. In addition, the RLU is 5.14e+06 RLU in assay [3] and 4.67e+06 RLU in assay [4].
